The source of these data is the DeepSol protein solubility set.

This data set in a line: soluble on expression in E. coli; label from the status in PepcDB or PDB records.
For the sequence “MGSDKIHHHHHHMVSKMTNQRVLTVPGGINFRELGGYSTKDGRKIKWHKVIRTGGLDQLTPTGQALLDDYGVRYDIDFRSPQEVLDAPDRIPANAKYVYAPVFNVDETRNSDGTDKMTANLEKHPDSGFKHMLKVYQMVADEQHAKDEYRRFFDNLLANDQPDSTLLFHCTAGKDRTGMGAVYLLTALGVDFETIKQDYLLTNQASIGRINGAMAEARAQGASDATVESIRALWSVDADYLDAAMTEIKRQSGNLNHYLHTELKLTNNEINDLQRIYLE”, the “soluble on expression in E. coli” value is on record as “not soluble”.

On to “MGSDKIHHHHHHMCQGLMTHSRCVKSNTMFSIRIKAGRKAYEQIRDGGFSCDRISAFFAPAAGPRWLVATGFDLTLLKAGLLGRKKPVQLIGSSSGAWRFAAWVQPEAEKSYLNLMEAYIRIPYHKDDRAGIVLQNLINVVNSYIEDDALPFALAHKHYRLAVLTARVRHLVASESSWIQSSGLFLCFLMNALSRSTLDHFTERVVFYNGPNPPGFCLKSPFRGRFIQLNRTNFKHAILASGAIPLFVAGIRDIYGAPRGVYRDGGLVDYHQTYDFAESDDDMTLFFHHQERIIPGWFDKRLKHRRTPDVLLDHTLMVFPTEDFVSTLPLGKLPDREDFRSFMDDPATRIRNWQEAVRRSAPLGEQFFELVESGKLRSMVERI”, for which the “soluble on expression in E. coli” value was “not soluble”.

As to “MPDGGFKVEVEALRRYRDTLEDFKSQADTFSDLVDRADVGDESWGLVGLATKSSYTEALGQLRDLLDRMKQGLTNTGEKFTKAAELYASNDDQGAIQLGNYEIEVDKVDEVRPAGA”, the “soluble on expression in E. coli” value is “not soluble”.

For “MSLKIYFLPMLLSLFFLGACDKNDEIIPEDADENFITSVVMTVDGKSYTADITDNTVTITVPYTVSLNNAEVEFKYTTSATIIPDPETVTDWDNERTFRVTSYNGDAREYTYKVVKSEIESDGDVELKTTEEVASFAATKTTVVKGNLIIGSDAEEAEKITDISALASLKEVTGNIVIRNSYNGADLTGLDNIVSAGGLQVGSTDVASKATELHMISMKALETLSGDISVYNDQVTYVLFEKLATIEGSVMFNASSLQSFEFPVLTTVGQDLNLQGLNEENTAAGSIASLEIPELTSVGGVLSVNNLAKLTSMSFLKLKETGGLDFHTVPVMLETINLPEIETVNGSIIMEANMEAPPTGSFVPQRNDVLQAFGGMDKLTTIKGQIKIKNFTALKQLPDWSKITTLGSITLDYLEDVSGTLLLPNARFETFGETAPQIEIINKVQLSKIETAEDLSNVNFVITSLTNNKFPEITFKNIKDFTCKPTTNNTDYTISTIQHVYGNLNVTGQMRSNAKFPDLEIIDGYGYIQIPMFASITMPVLKEVGGQFYLSGNFTSCNLPLLSKVCCSASPVYYKEGEGSLAISLQSKSLDIPELLHVGGEGLFVNKATGITCDKLQTIDGTLQIKSATSLSQETLSMEKLETLHGVVFDGLTKFTDYTFFGKFIENGMITGESWSVTKCGYNPTFQNMKDKQYTEGHHHHHH”, the “soluble on expression in E. coli” value is reported as “soluble”.

In the case of “MSLPISLTDFFPIQGGMATRMVIEGANFGTDLSQIKVFFNQKEASILNVKNSIIYLLVPKLPGNDCIVTVKVGNQEARFTRNFQYIENYSVTTIAGQPGTNLFVEGTLAAAQFGPVQHLAIDDENNLFITERNGSDGKGTCSVLNEESGTVTFLFKASDNLNVPTVNAQTQNVYIPLDGGYTFYELNPVNQWIAKSRLVLHPSKEQQEAGMDDFEINWKHSLAFSRYDNMIYTRSYGGDLIKVDPETRVGQKIGNFFPNTDSFIVAHPTQPEILYIAYAAKHVIYTYNIETGEHKLFAGAFGQSGWNDGIATDAEFNSPRQMSLDMEGNIYIADSGNHCIRMIDKNGIVTTPIGQPGEAGYADGSPDMALLNDPRGVAVNSEGDVYIADLGNRCIRKLTLQLEHHHHHH”, the “soluble on expression in E. coli” value is “soluble”.

In the case of “MGSDKIHHHHHHMETGLLLTLLNKTTSLSVNQKTGIEVVSCTFNDLINTFQKAIPNTNIKGQLCIPEYQRPYVWKEKQINRLLDDFIEYYKNTDNDKPLFYLGSIIVHKDEGTLKIIDGQQRITTLLLINSIINKEIKSGIQYTSTTSINNIKRNFSYLKSVHAKDVFDYADTEVLNYIDFDKINVTLVVTATEDLAYTFFETQNTGGVRLSGSDIIKAHHLRAISSEKNINYQARKWEGIESEKIESIIQNLTKIRFWDNRNWRRFPFYRDEKGIKEVLIEEFTENTKHDKEDISFYYSAVKMEAGRAFQMHESNYKQLKQPLSDGNNTLDYINDYVHLHDVLFNRSKKDYRVSDAFYDFNEKLMHGNSGTLFLKELLEICIITYVSRFGFYRLFEASLWLYRSIYSLRVSSSRNVREDSIFKFVFENQFIDNIIEVYTVDELILYLKRFKYTFNTDNLGVKESKDKHIGSLNNYFNEFGKTEDFKKTPKAFDKAFLTAIVTKIKENNEQ”, the “soluble on expression in E. coli” value was “not soluble”.

Regarding “MGSDKIHHHHHHMNQDGASPLSETAQPFLQVVGVHKRFTGVHALRGVSLTFERGQIYHLLGENGCGKSTLIKIISGAQPPDQGELVIEGVRHAQLSPLESLAAGIETVYQDLSLLPNMSVAENVALTAELAAHAGKLARTFDRRALARTAARALEAVGLPGSADFQATLIEQLPLATRQLVAIARAIASEAKFVIMDEPTTSLTQKEVDNLIAVLANLRAHGVTVLFVSHKLDECYAIGGEVIVLRDGQKMAQGPIAQFTKARLSELMTGRELSNERYREAGHAQDVVLELRGLTRAGQFSDVSLSLHGGEILGVTGLLDSGRNELARALAGVAPAHAGEVLLDGHAIALRTPSDAKRNRIGYVPEDRLNEGLFLDKPIRDNLITAMISSLRDRFGQIDRARAQALAQQTVKELQIATAGIDKPVQSLSGGNQQRVLIGRWLAIDPRVLILHGPTVGVDVGSRDVIYRIMQRLSQRGIGIILISDDLPELLQNCDRILMMKKGRVASEYRADALDEADLYHALLSEAA”, the “soluble on expression in E. coli” value is listed as “not soluble”.

With “MRTPIALSLALCLSLFPSFASAEEAAPEGEGANKPVYVDLTPALVGNYGSGPRLQYYKADIALQVADKDAATKVEHHEPLIRNQLIMLFAQQTDQSLGTVEAKESLRQEALKQVQQTLEQEEGKPLVTDLLFNNLIVQP”, the “soluble on expression in E. coli” value was “not soluble”.

As for “MGSDKIHHHHHHMSKLIETRGLTKKYPGVVALDHVDFDLEPGEVHVLFGENGAGKSTLISMLAGANAPSEGRLLLNGEEVQFESVADAQAKGIYTVFQEFSLIPTLTVAQNIFLGWELRFGPFLDHRAMRARAREMLAELGFDIDPAAIVAQLSRAQQQMVEITKAFHGDLNVLILDEPTASLTDREVDHLFEFVAKLKAQGVGIVYISHRIQEFERIAERVTVLRDGAVIGTVAMAETDEDALVEMMTGRAFDQIYPSITFSPGETLLEVSDLTAPGISGACFQVRRGEVLGVAGLVGSGKSRLFRAVMGLTPVQSGSIRFKGADITNAPTRKIITRGMYYLSPDRKAEGLDLAKNARDNLAVNIISGQRHSGHGPFIPWGAVNARIDQISDHVELHAGYRSKPTSQLSGGNQQKVLFGKCFGQDADLIIFDEPTVGVDMGTRAALYLLIKELAEAGKAIVVISSDLPEAMNIAHRLLVLAHGTITARLSADEMSEDTVLKYFFDETGASQ”, the “soluble on expression in E. coli” value is “not soluble”.

As for “MDPVIKLVAHAQEMSMTIPRRQACMVYGKLNVTLKKGDVQEERDKRVTDGYVHIPEDMPQGRFDFGFTREDADVNIGTGQSTYELALDTAARRITGQVLFEQDIIAPGFGDWRPLIDFSCGDLVGVRIWGKELVLPVTSITRETTGWRAHVGGQLINDRRKIISENRKILADIESERRER”, the “soluble on expression in E. coli” value is listed as “not soluble”.

“MPSSIYRYETIQVAGRGAFGLVVIARDTLTSKRVAIKRIMVPNVSKVSLAREISCLRNLHHRNILKLLDCFPSADLMSIVTEEVPYTLGDIIKDKTRPKTEQFNRWYYTQILSGIAYLHSKEIMHRDIKPENILVTSRNVVKIADFGQACFYMPKDPNQEYDVNVATRWYRAPELLFGSKKYKPDVDIWAIGCILAELVRGKPIFPGRSELEQISIIFGVLGTPNEDNWPNWRTMPDANKLLFEPKEPRNNWTEILLCKEISNNFTEFLGSHLQFFKRLKASELLKEPWIKQGLPLVEPNYRISKKSTRRNQRDALPPLHVFL”: the “soluble on expression in E. coli” value was “not soluble”.

Consider “MGSDKIHHHHHHMKTVTRYACQKCGYQSAKWLGKCPDCAAWNSFVEEVTGGGRKGAASLPAATRPVPICDVASEAETRLSCGISEFDRVLGGGLVSGSLVLIGGDPGIGKSTILLQVMDHLARTAGPVLYVSGEESARQTKMRGERLGIGARELLVLAETSLELILSQVTALAPRALVIDSIQTVFSANLESAPGSVSQVRECAGRLMELAKRNGIPTLLVGHVTKDGSLAGPRVLEHMVDTVLYFEGDPGHAFRILRAVKNRFGSTNEIGVFEMKEGGLSEVRNPSELFLAERPLGVSGSAVVTTIEGSRPLLVELQALVTPSSLGVPRRTTLGVDHNRLALLVAVLDKKVGLHLSGQDIFLNAAGGARLSEPAIDLGMVAALASSHLDKIIDPHTVIVGEVGLAGEVRAITQAETRVREAAKLGFTRAVIPAGSVRQVGDVPGMNVVGVKSLDEALEQLF”, for which the “soluble on expression in E. coli” value is listed as “not soluble”.

With “MGSDKIHHHHHHMLDHLCVNMLSSCPRCASSSGNRASRRYPMRINADFTRRAAVHFDQTDWVPSPAPGVERKMLDRIGAEVARATTIVRFAPGSAFSAHTHDGGEEYLVLDGVFQDELGDFPVGSYVRNPPTSSHTPATEPGATILVKLHQFDPADRTEVRRSINGKSDETLFSDSHEEVRLESWAAGAQVTRDLPGGIEVFVLEGGFQEGGETFSRWDWLRLPPGARLDLTAGAEGARVWVKSGHLAAMV”, the “soluble on expression in E. coli” value is reported as “not soluble”.

Consider “MPIRDDISWPPSAVCSVSLILHLPGRFGHVSVAHLLLDHGADVNAQNRLGASVLTVASRGGHLGVVKLLLEAGAFVDHHHPSGEQLGLGGSRDEPLDITALMAAIQHGHEAVVRLLMEWGADPNHAARTVGWSPLMLAALTGRLGVAQQLVEKGANPDHLSVLEKTAFEVALDCKHRDLVDYLDPLTTVRPKTGQAACPPWLHRGPQIVFMWLKLRIALLEGHAELRVQPCRPLRLRKWCA”, for which the “soluble on expression in E. coli” value is “soluble”.

On to “MGSDKIHHHHHHMVGNYRGMGRFARQLVEPVGASVLGLAPSGVHADEWPCVSQGHGFFPWWEQVELPRLCREQRLDYLLCPYNTGPLRSTGNTRVVAVIHDLIYMEPWHVLPPARSVYQTVGRVYRRHVVPRLVRRADVVLTVSRFTQRELVKKFELREGDVRVVPCTISDDWFEPPVSRTARQPYLFTVAGEVPSKNVGRLLQAFAIARPALGDDARLRIAGIKAEHHAHFLGLADSLGLTNAVELLGYVSREELREQYRQARAFVFASLFEGFGIPLLEAMASGTPVACSNTTSMPEIAGNCALQFDPRSVEDMAEQIRAIWDDSARFEVALGDGVNRARTYSESAVRPSIEDFWAGLA”, for which the “soluble on expression in E. coli” value is reported as “not soluble”.

Take “MHHHHHHMNPERSERIEIPVLPLRDVVVYPHMVIPLFVGREKSIRCLEAAMDHDKKIMLVAQKEASTDEPGVNDLFTVGTVASILQMLKLPDGTVKVLVEGLQRARISALSDNGEHFSAKAEYLE”: the “soluble on expression in E. coli” value is recorded as “soluble”.

“MAHHHHHHMSSTEEYYKLMEVILHILKKHKRHVECLKILLKLNRRDKIKDLLFECGDMITCKQMALICSRHSIHLEFTQEEVIRYPHMNLNQLASLSSGEHLSSIFLKLAKDLDVEEPKLPEDIYKTHLEEKRNTNVWDSAKQNLSASFVNAFVNAAFCKDKLMTVNSSL”: the “soluble on expression in E. coli” value is reported as “not soluble”.

Consider “MSDLQKLQRFSTCDISDGLLNVYNIPTGGYFPNLTAISPPQNSSIVGTAYTVLFAPIDDPRPAVNYIDSVPPNSILVLALEPHLQSQFHPFIKITQAMYGGLMSTRAQYLKSNGTVVFGRIRDVDEHRTLNHPVFAYGVGSCAPKAVVKAVGTNVQLKILTSDGVTQTICPGDYIAGDNNGIVRIPVQETDISKLVTYIEKSIEVDLLVSEDIKNGIPAKQAQNDRRSVLKKYIHHHHHH”, for which the “soluble on expression in E. coli” value is listed as “soluble”.
